These are literature values, as cited in paper PMC10385628.

pKd: −log10 of the molar value.

The target in this series is neuropilin-1 (Homo sapiens) (UniProt O14786).
Chain of UniProt O14786 (O14786 22-856): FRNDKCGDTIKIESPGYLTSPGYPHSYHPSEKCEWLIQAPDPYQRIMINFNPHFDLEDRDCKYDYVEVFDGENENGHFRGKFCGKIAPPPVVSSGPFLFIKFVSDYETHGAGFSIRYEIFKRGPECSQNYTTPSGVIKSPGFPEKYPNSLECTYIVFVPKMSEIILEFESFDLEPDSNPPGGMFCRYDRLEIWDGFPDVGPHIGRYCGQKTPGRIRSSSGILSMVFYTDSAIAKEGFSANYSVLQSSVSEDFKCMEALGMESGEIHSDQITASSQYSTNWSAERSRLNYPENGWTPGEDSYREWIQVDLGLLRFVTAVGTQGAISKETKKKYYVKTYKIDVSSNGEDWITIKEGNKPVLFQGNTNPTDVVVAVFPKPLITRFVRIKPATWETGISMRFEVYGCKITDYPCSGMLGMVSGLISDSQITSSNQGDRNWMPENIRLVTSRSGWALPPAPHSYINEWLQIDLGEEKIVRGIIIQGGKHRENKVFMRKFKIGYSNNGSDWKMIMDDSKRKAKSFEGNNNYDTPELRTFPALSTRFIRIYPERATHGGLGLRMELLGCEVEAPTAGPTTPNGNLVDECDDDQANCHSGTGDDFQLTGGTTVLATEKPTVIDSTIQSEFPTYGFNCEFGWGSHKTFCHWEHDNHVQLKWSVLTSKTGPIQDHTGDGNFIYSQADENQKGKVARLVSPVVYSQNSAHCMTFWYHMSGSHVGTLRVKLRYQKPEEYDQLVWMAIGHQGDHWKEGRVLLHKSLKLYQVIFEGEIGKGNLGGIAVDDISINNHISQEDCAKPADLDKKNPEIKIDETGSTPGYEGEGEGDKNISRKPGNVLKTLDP

By pKd is commonly meant the Kd on a negative log10 scale, so that one unit is a factor of ten. For the substance KDKPPR peptide, the pKd is 6.30.
